Laboratory results from PMC2752837.

Columns and labels:
Assay in all cases: purified protein
Conditions in all cases: 50 mM CHES pH 9.5, 10 mM DTT, 37 °C
[1] = system: CCOC(=O)[C@H](CCCNC(=N)N)NC(=O)c1ccccc1
[2] = system: N=C(N)NCCCC[C@H](N)C(=O)O
[3] = system: N=C(N)NCCC[C@H](N)C(=O)NO
[4] = system: N=C(N)NOCC[C@H](N)C(=O)O
[5] = system: N=C(NO)NCCC[C@H](N)C(=O)O

Substance: truncated PAD (peptidylarginine deiminase, 43-amino acid N-terminal deletion) (Porphyromonas gingivalis W83)
- Km [1]: (18 ± 1)×10^3 µM
- kcat/Km [1]: 0.99 M⁻¹ s⁻¹
- Km [2]: (4.7 ± 0.8)×10^3 µM
- kcat [2]: 0.11 s⁻¹
- kcat/Km [2]: 24 M⁻¹ s⁻¹
- Km [3]: (6.9 ± 0.5)×10^3 µM
- kcat [3]: 0.15 s⁻¹
- Km [4]: (6 ± 1)×10^3 µM
- kcat [4]: 0.0052 s⁻¹
- kcat/Km [4]: 0.93 M⁻¹ s⁻¹
- Km [5]: (1.5 ± 0.5)×10^3 µM
- kcat [5]: 0.0046 s⁻¹
- kcat/Km [5]: 3 M⁻¹ s⁻¹
